In patent publication US20080015165A1, “NOVEL POLYPEPTIDE” (KYOWA HAKKO KOGYO CO., LTD., priority 1998, published 2008):

B1: Fuc-TV: known human α1,3-fucosyltransferase, previously cloned, expressed in Namalwa cells (protein, UniProt Q11128 1-374, looked up)
4-galactosyl-N-acetylglucosami …: MDPLGPAKPQWLWRRCLAGLLFQLLVAVCFFSYLRVSRDDATGSPRPGLMAVEPVTGAPNGSRCQDSMATPAHPTLLILLWTWPFNTPVALPRCSEMVPGAADCNITADSSVYPQADAVIVHHWDIMYNPSANLPPPTRPQGQRWIWFSMESPSNCRHLEALDGYFNLTMSYRSDSDIFTPYGWLEPWSGQPAHPPLNLSAKTELVAWAVSNWKPDSARVRYYQSLQAHLKVDVYGRSHKPLPKGTMMETLSRYKFYLAFENSLHPDYITEKLWRNALEAWAVPVVLGPSRSNYERFLPPDAFIHVDDFQSPKDLARYLQELDKDHARYLSYFHWRETLRPRSFSWALAFCKACWKLQQESRYQTVRSIAAWFT
B2: Mouse Fuc-TIV: known mouse α1,3-fucosyltransferase expressed from pCDM8-mFT4 for comparison (protein, UniProt Q11127 1-433, looked up)
Alpha-(1,3)-fucosyltransferase …: MAPARQELQHESRCRPSRTVDAWRAAVATRGRHMETPGYRRRTRCGGWGLPRSVSSLAAVGLLCTALTTFICWGQLPPLPWASPAPQRLVGVLLWWEPFRGRGGYPKSPPDCSLRFNISGCRLLTDRAAYGEAQAVLFHHRDLVKELHDWPPPWGARERTDKALVLRVFDDQEGAVTLTGKALETVGSRPPGQRWVWMNFESPSHTPGLRGLAKDLFNWTLSYRTDSDVFVPYGFLYSRSDPTEQPSGLGPQLARKRGLVAWVVSNWNEHQARVRYYHQLSRHVSVDVFGRTGPGRPVPAIGLLHTVARYKFYLAFENSRHVDYITEKLWRNAFLAGAVPVVLGPDRANYERFVPRGAFIHVDDFPNAASLAAYLLFLDRNVAVYRRYFRWRRSFAVHITSFWDEQWCRTCQAVQTSGDQPKSIHNLADWFQR
B3: Human Fuc-TVI: known human α1,3-fucosyltransferase, previously cloned, used for comparison (protein, UniProt P51993 1-359, looked up)
4-galactosyl-N-acetylglucosami …: MDPLGPAKPQWSWRCCLTTLLFQLLMAVCFFSYLRVSQDDPTVYPNGSRFPDSTGTPAHSIPLILLWTWPFNKPIALPRCSEMVPGTADCNITADRKVYPQADAVIVHHREVMYNPSAQLPRSPRRQGQRWIWFSMESPSHCWQLKAMDGYFNLTMSYRSDSDIFTPYGWLEPWSGQPAHPPLNLSAKTELVAWAVSNWGPNSARVRYYQSLQAHLKVDVYGRSHKPLPQGTMMETLSRYKFYLAFENSLHPDYITEKLWRNALEAWAVPVVLGPSRSNYERFLPPDAFIHVDDFQSPKDLARYLQELDKDHARYLSYFRWRETLRPRSFSWALAFCKACWKLQEESRYQTRGIAAWFT
B4: Human Fuc-TIII: known human α1,3-fucosyltransferase, previously cloned, used for comparison (protein, UniProt P21217 1-361, looked up)
3-galactosyl-N-acetylglucosami …: MDPLGAAKPQWPWRRCLAALLFQLLVAVCFFSYLRVSRDDATGSPRAPSGSSRQDTTPTRPTLLILLRTWPFHIPVALSRCSEMVPGTADCHITADRKVYPQADMVIVHHWDIMSNPKSRLPPSPRPQGQRWIWFNLEPPPNCQHLEALDRYFNLTMSYRSDSDIFTPYGWLEPWSGQPAHPPLNLSAKTELVAWAVSNWKPDSARVRYYQSLQAHLKVDVYGRSHKPLPKGTMMETLSRYKFYLAFENSLHPDYITEKLWRNALEAWAVPVVLGPSRSNYERFLPPDAFIHVDDFQSPKDLARYLQELDKDHARYLSYFRWRETLRPRSFSWALDFCKACWKLQQESRYQTVRSIAAWFT
B5: Fuc-TVII: known human α1,3-fucosyltransferase, previously cloned, expressed in Namalwa cells (protein, UniProt Q11130 1-342, looked up)
Alpha-(1,3)-fucosyltransferase …: MNNAGHGPTRRLRGLGVLAGVALLAALWLLWLLGSAPRGTPAPQPTITILVWHWPFTDQPPELPSDTCTRYGIARCHLSANRSLLASADAVVFHHRELQTRRSHLPLAQRPRGQPWVWASMESPSHTHGLSHLRGIFNWVLSYRRDSDIFVPYGRLEPHWGPSPPLPAKSRVAAWVVSNFQERQLRARLYRQLAPHLRVDVFGRANGRPLCASCLVPTVAQYRFYLSFENSQHRDYITEKFWRNALVAGTVPVVLGPPRATYEAFVPADAFVHVDDFGSARELAAFLTGMNESRYQRFFAWRDRLRVRLFTDWRERFCAICDRYPHLPRSQVYEDLEGWFQA

What was measured:
[1] = Enzyme activity for a poly-N-acetyllactosamine sugar chain, Namalwa cell extract, HPLC; assay type: biochemical; settings: substrate S; for Production (%) P1 / Production (%) P2 / Production (%) P3: relative value, total of products P1, P2 and P3 by each enzyme = 100%
Description: Using a poly-N-acetyllactosamine sugar chain, it was examined that to which GlcNAc in the sugar chains, human Fuc-TIX and 5 types of human α1,3-fucosyltransferase (Fuc-TIII, Fuc-TIV, Fuc-TV, Fuc-TVI, and Fuc-TVII) that had been cloned so far transferred fucose.
Control plasmid (pAMo) and the human Fuc-TIX expression plasmid pAMo-FT9 were introduced into Namalwa cells according to the method shown in Example 1 (3), thereby obtaining stable transformants.
Namalwa cells expressing each of the other 5 types of human α1,3-fucosyltransferases (Fuc-TIII, Fuc-TIV, Fuc-TV, Fuc-TVI, and Fuc-TVII) were obtained according to the previous report (Glycoconjugate J., 13, 802-812, Biochem. Biophys. Res. Commun., 237, 131-137, 1997).
The resultant transformants (about 1×10^7) were collected in microtubes (1.5 ml, manufactured by Eppendolf), followed by centrifugation at 550×g for 7 minutes to collect the cells.
The collected cells were washed with 0.9 ml of PBS. The washed cells were suspended in 100 μl of a solution which consisted of 20 mM HEPES (pH 7.2) and 1% TrironX-100, then allowed to stand at 4° C. for 10 minutes. Subsequently the cells were disrupted using a ultrasonicator (Bioruptor; manufactured by COSMO BIO CO., LTD.)
After disruption of the cells, each supernatant was obtained by centrifugation at 550×g for 7 minutes and used as an enzyme sample. A poly-N-acetyllactosamine sugar chain (Galβ1-4GlcNAcβ1-3Galβ1-4GlcNAcβ1-3Galβ1-4GlcNAc) consisting of 6 sugars was fluorescently labeled with 2-aminobenzamide to make a sugar chain (Galβ1-4GlcNAcβ1-3Galβ1-4GlcNAcβ1-3Galβ1-4GlcNAc-2AB: abbreviated as S in FIGS. 13 and 15, and table 3), which was used as a substrate
Florescent labeling was performed using a Signal™ 2-AB glycan labeling kit (manufactured by Oxford GlycoScience). A poly-N-acetyllactosamine sugar chain (Galβ1-4GlcNAcβ1-3Galβ1-4GlcNAcβ1-3Galβ1-4GlcNAc) was prepared according to WO98/03524.
Samples were allowed to react in 20 μl of an assay solution [50 mM cacodylate (pH 6.8), 5 mM ATP, 10 mM L-fucose, 75 μM […] (manufactured by SIGMA), 25 mM MnCl2, 15 μM fluorescently labeled sugar chain substrate, 6 μl of the cell lysate above] at 37° C. for 2 hours, followed by treatment at 100° C. for 3 minutes to stop the reaction. Next 200 μl of water was added to the samples, and the supernatant was obtained by centrifugation at 10,000×g for 5 minutes. Using an aliquot of the supernatant (10 μl), products were analyzed by HPLC under the following conditions.
HPLC: • Column—TSK-gel ODS-80TsQA column (4.6×250 mm; TOSOH CORPORATION) • Eluate—0.02 M ammonium acetate (pH 4.0) containing 7% methanol • Elution temperature—50° C. • Flow rate—1.0 ml/min. • Detection—Fluorescence spectrum photometer FB-920 (manufactured by JASCO Corporation) (excitation wavelength: 330 nm, radiation wavelength: 420 nm)

[2] = In vitro α1,3-fucosyltransferase activity, COS-1 cell lysate, pyridylaminated substrate, HPLC; assay type: biochemical; settings: activity of human Fuc-TVI for α2,3-sialylLNnT taken as 100; 25 μM substrate, 2 hours at 37° C.; normalized to transcript amount
Description: Each α1,3-fucosyltransferase expression plasmid (15 μg) was introduced into 1×10^7 COS-1 cells.
This introduction was performed by electroporation method using a gene pulser (manufactured by Bio-Rad) according to the Bio-Rad's instructional manual attached thereto. At this time, 1 μg of a luciferase expression vector, which was constructed by inserting β-actin promoter into a Hind III site of a vector pSVOA/L [Experimental Medicine, 7, 96, (1989)] was co-introduced as an index of gene transfer efficiency.
After the gene introduction, COS-1 cells were dispensed into three dishes for cell culture with a diameter of 15 cm and then cultured for 48 hours.
The cells in the remaining two dishes were collected, suspended in a solution (20 mM HEPES (pH 7.4), 2% TrironX-100), then ultrasonicated for a short time period, thereby preparing cell lysate. The protein concentration of the cell lysate was measured using a micro BCA protein assay reagent kit (manufactured by PIERCE).
The enzymatic activities of luciferase and α1,3-fucosyltransferase were measured using the cell lysate. […]
Each of the substrates was allowed to react in assay solution with or without GDP-Fuc (sugar donator), then analyzed with HPLC. […]
The products were detected using a fluorescent spectrum photometer FP-920 (JASCO Corporation) at excitation wavelength of 320 nm and emission wavelength of 400 nm. […]

Molecule | Production (%) P1 [1] [%] | Production (%) P2 [1] [%] | Production (%) P3 [1] [%] | Relative activity of α1,3-fucosyltransferases for substrate LNT [2] | major product ([1]; extract of Namalwa cells expressing the enzyme)
B1 | 7.5 | 92.5 | 0.0 |  | 
B2 |  |  |  | 0 | 
B3 | 8.3 | 88.7 | 3.0 |  | 
B4 | 2.0 | 98.0 | 0.0 |  | 
B5 | 0.0 | 0.0 | 0.0 |  | no product
